Measurements published in patent publication US20260240959A1, “METHODS FOR IN VIVO EDITING OF KLKB1” (INTELLIA THERAPEUTICS, INC., priority 2022, published 2026).
In the oligonucleotide strings, read from the 5' end, every base follows the letter of its sugar. An asterisk marks phosphorothioate; unmarked linkages are phosphodiester. Other units and linkages are bracketed, terminal groups are in braces. A string of capitals states the bases alone. m = 2'-O-methyl; r = 2'-OH (RNA)

Columns and labels:
plasma kallikrein = experiment: Plasma kallikrein activity in cynomolgus monkeys; type: in vivo, cynomolgus monkey; conditions: n=3, 6 mpk
Method: (§1) Cynomolgus monkeys were treated in cohorts of n=3. This study was conducted with LNP formulations according to Example 1. […]. Animals were dosed at 1.5, 3, or 6 mg per kg doses based on total RNA cargo. Indel formation (percent editing) was measured by NGS. Total kallikrein activity and plasma kallikrein protein level were measured as described above. […]

[1] = system: plasma kallikrein protein; experiment: Plasma kallikrein protein level in cynomolgus monkeys; type: in vivo, cynomolgus monkey; conditions: n=3
Method: as §1

B1: G013901: cynomolgus specific KLKB1 guide RNA (SEQ ID NO: 409); dosed as LNP formulation with Cas9 mRNA (nucleic acid)
guide: mG*mG*mA*rUrUrArCrArUrArUrGrGrGrArCrArCrArArGrUrUrUrUrArGrAmGmCmUmAmGmAmAmAmUmAmGmCrArArGrUrUrArArArArUrArArGrGrCrUrArGrUrCrCrGrUrUrArUrCrAmAmCmUmUmGmAmAmAmAmAmGmUmGmGmCmAmCmCmGmAmGmUmCmGmGmUmGmCmU*mU*mU*mU
For B1, the “Kallikrein Activity (% of basal activity), Mean” value (plasma kallikrein; Day 347) was 2.9 % of basal activity, the “Kallikrein Activity (% of basal activity), Mean” value (plasma kallikrein; Day 365) was 3.4 % of basal activity and the “Plasma Kallikrein Protein Levels (% of basal level), Mean” value ([1]; 1.5 mpk, Day 14) was 28.8 % of basal level. For the same molecule, the “Plasma Kallikrein Protein Levels (% of basal level), Mean” value ([1]; 1.5 mpk, Day 28) was 32.7 % of basal level, the “Plasma Kallikrein Protein Levels (% of basal level), Mean” value ([1]; 1.5 mpk, Day 42) was 31.5 % of basal level and the “Plasma Kallikrein Protein Levels (% of basal level), Mean” value ([1]; 1.5 mpk, Day 56) was 30.1 % of basal level. For the same molecule, the “Plasma Kallikrein Protein Levels (% of basal level), Mean” value ([1]; 1.5 mpk, Day 70) was 29.8 % of basal level, the “Plasma Kallikrein Protein Levels (% of basal level), Mean” value ([1]; 1.5 mpk, Day 84) was 38.7 % of basal level and the “Plasma Kallikrein Protein Levels (% of basal level), Mean” value ([1]; 1.5 mpk, Day 105) was 47 % of basal level. For the same molecule, the “Plasma Kallikrein Protein Levels (% of basal level), Mean” value ([1]; 1.5 mpk, Day 119) was 31.6 % of basal level, the “Plasma Kallikrein Protein Levels (% of basal level), Mean” value ([1]; 1.5 mpk, Day 147) was 32.1 % of basal level and the “Plasma Kallikrein Protein Levels (% of basal level), Mean” value ([1]; 1.5 mpk, Day 161) was 35.8 % of basal level. The “Plasma Kallikrein Protein Levels (% of basal level), Mean” value ([1]; 1.5 mpk, Day 180) was 33.8 % of basal level, the “Plasma Kallikrein Protein Levels (% of basal level), Mean” value ([1]; 1.5 mpk, Day 238) was 27.4 % of basal level and the “Plasma Kallikrein Protein Levels (% of basal level), Mean” value ([1]; 1.5 mpk, Day 252) was 27.9 % of basal level. The “Plasma Kallikrein Protein Levels (% of basal level), Mean” value ([1]; 1.5 mpk, Day 266) was 28.7 % of basal level, the “Plasma Kallikrein Protein Levels (% of basal level), Mean” value ([1]; 1.5 mpk, Day 280) was 33.7 % of basal level and the “Plasma Kallikrein Protein Levels (% of basal level), Mean” value ([1]; 1.5 mpk, Day 294) was 30.4 % of basal level. For the same molecule, the “Plasma Kallikrein Protein Levels (% of basal level), Mean” value ([1]; 1.5 mpk, Day 308) was 20.6 % of basal level, the “Plasma Kallikrein Protein Levels (% of basal level), Mean” value ([1]; 1.5 mpk, Day 326) was 29.7 % of basal level and the “Plasma Kallikrein Protein Levels (% of basal level), Mean” value ([1]; 1.5 mpk, Day 333) was 30.9 % of basal level. The “Plasma Kallikrein Protein Levels (% of basal level), Mean” value ([1]; 1.5 mpk, Day 347) was 26 % of basal level, the “Plasma Kallikrein Protein Levels (% of basal level), Mean” value ([1]; 1.5 mpk, Day 365) was 22.7 % of basal level and the “Plasma Kallikrein Protein Levels (% of basal level), Mean” value ([1]; 3 mpk, Day 14) was 27.1 % of basal level. For the same molecule, the “Plasma Kallikrein Protein Levels (% of basal level), Mean” value ([1]; 3 mpk, Day 28) was 16.9 % of basal level, the “Plasma Kallikrein Protein Levels (% of basal level), Mean” value ([1]; 3 mpk, Day 42) was 16 % of basal level and the “Plasma Kallikrein Protein Levels (% of basal level), Mean” value ([1]; 3 mpk, Day 56) was 15.4 % of basal level. The “Plasma Kallikrein Protein Levels (% of basal level), Mean” value ([1]; 3 mpk, Day 70) was 15.4 % of basal level, the “Plasma Kallikrein Protein Levels (% of basal level), Mean” value ([1]; 3 mpk, Day 84) was 17.1 % of basal level and the “Plasma Kallikrein Protein Levels (% of basal level), Mean” value ([1]; 3 mpk, Day 105) was 22.3 % of basal level. For the same molecule, the “Plasma Kallikrein Protein Levels (% of basal level), Mean” value ([1]; 3 mpk, Day 119) was 18.1 % of basal level, the “Plasma Kallikrein Protein Levels (% of basal level), Mean” value ([1]; 3 mpk, Day 147) was 18.3 % of basal level and the “Plasma Kallikrein Protein Levels (% of basal level), Mean” value ([1]; 3 mpk, Day 161) was 7.5 % of basal level. For the same molecule, the “Plasma Kallikrein Protein Levels (% of basal level), Mean” value ([1]; 3 mpk, Day 180) was 18 % of basal level, the “Plasma Kallikrein Protein Levels (% of basal level), Mean” value ([1]; 3 mpk, Day 238) was 16.4 % of basal level and the “Plasma Kallikrein Protein Levels (% of basal level), Mean” value ([1]; 3 mpk, Day 252) was 15.6 % of basal level. The “Plasma Kallikrein Protein Levels (% of basal level), Mean” value ([1]; 3 mpk, Day 266) was 21.8 % of basal level, the “Plasma Kallikrein Protein Levels (% of basal level), Mean” value ([1]; 3 mpk, Day 280) was 24.6 % of basal level and the “Plasma Kallikrein Protein Levels (% of basal level), Mean” value ([1]; 3 mpk, Day 294) was 24.6 % of basal level. The “Plasma Kallikrein Protein Levels (% of basal level), Mean” value ([1]; 3 mpk, Day 308) was 27.6 % of basal level, the “Plasma Kallikrein Protein Levels (% of basal level), Mean” value ([1]; 3 mpk, Day 326) was 23.8 % of basal level and the “Plasma Kallikrein Protein Levels (% of basal level), Mean” value ([1]; 3 mpk, Day 333) was 25.3 % of basal level. The “Plasma Kallikrein Protein Levels (% of basal level), Mean” value ([1]; 3 mpk, Day 347) was 22.1 % of basal level, the “Plasma Kallikrein Protein Levels (% of basal level), Mean” value ([1]; 3 mpk, Day 365) was 11.4 % of basal level and the “Plasma Kallikrein Protein Levels (% of basal level), Mean” value ([1]; 6 mpk, Day 14) was 13.7 % of basal level. The “Plasma Kallikrein Protein Levels (% of basal level), Mean” value ([1]; 6 mpk, Day 28) was 6.6 % of basal level, the “Plasma Kallikrein Protein Levels (% of basal level), Mean” value ([1]; 6 mpk, Day 42) was 6.3 % of basal level and the “Plasma Kallikrein Protein Levels (% of basal level), Mean” value ([1]; 6 mpk, Day 56) was 5.8 % of basal level. The “Plasma Kallikrein Protein Levels (% of basal level), Mean” value ([1]; 6 mpk, Day 70) was 5.8 % of basal level, the “Plasma Kallikrein Protein Levels (% of basal level), Mean” value ([1]; 6 mpk, Day 84) was 6.7 % of basal level and the “Plasma Kallikrein Protein Levels (% of basal level), Mean” value ([1]; 6 mpk, Day 105) was 7.6 % of basal level. The “Plasma Kallikrein Protein Levels (% of basal level), Mean” value ([1]; 6 mpk, Day 119) was 6.4 % of basal level, the “Plasma Kallikrein Protein Levels (% of basal level), Mean” value ([1]; 6 mpk, Day 147) was 6.7 % of basal level and the “Plasma Kallikrein Protein Levels (% of basal level), Mean” value ([1]; 6 mpk, Day 161) was 7.4 % of basal level. For the same molecule, the “Plasma Kallikrein Protein Levels (% of basal level), Mean” value ([1]; 6 mpk, Day 180) was 2.9 % of basal level, the “Plasma Kallikrein Protein Levels (% of basal level), Mean” value ([1]; 6 mpk, Day 238) was 3.7 % of basal level and the “Plasma Kallikrein Protein Levels (% of basal level), Mean” value ([1]; 6 mpk, Day 252) was 3.9 % of basal level. The “Plasma Kallikrein Protein Levels (% of basal level), Mean” value ([1]; 6 mpk, Day 266) was 3.7 % of basal level, the “Plasma Kallikrein Protein Levels (% of basal level), Mean” value ([1]; 6 mpk, Day 280) was 6.3 % of basal level and the “Plasma Kallikrein Protein Levels (% of basal level), Mean” value ([1]; 6 mpk, Day 294) was 7.4 % of basal level. The “Plasma Kallikrein Protein Levels (% of basal level), Mean” value ([1]; 6 mpk, Day 308) was 6.2 % of basal level, the “Plasma Kallikrein Protein Levels (% of basal level), Mean” value ([1]; 6 mpk, Day 326) was 8 % of basal level and the “Plasma Kallikrein Protein Levels (% of basal level), Mean” value ([1]; 6 mpk, Day 333) was 7.8 % of basal level. For the same molecule, the “Plasma Kallikrein Protein Levels (% of basal level), Mean” value ([1]; 6 mpk, Day 347) was 7.3 % of basal level and the “Plasma Kallikrein Protein Levels (% of basal level), Mean” value ([1]; 6 mpk, Day 365) was 4.3 % of basal level.
